Here are results for one substance from patent US20080233103.

The test system of the data set is N-formyl-Met-Ala.

Consider “recombinant histidine-tagged Mycobacterium tuberculosis peptide deformylase (mPDF), wild-type construct from pET-mPDF”, for which the “Michalis-Menton constant (Km)” value came to 4.1 ± 0.2 mM, the catalytic efficiency was 1220 ± 6 M⁻¹ s⁻¹ and the “velocity maxima (Vmax)” value amounted to 13.3±0.7 µmoles/min/mg protein.
